2 molecules from patent US20180055923A1 (WASHINGTON UNIVERSITY, published 2018) can be followed below.

The assay addresses T1, human fibrinogen free from plasminogen and von Willebrand factor (Enzyme Research Laboratory) (human, UniProt P02671 20-629; P02675 31-491; P02679 27-437).
T1 construct: It was bought as purified protein and coated on plates; also called Fg; immobilized human fibrinogen
T1 sequence 1: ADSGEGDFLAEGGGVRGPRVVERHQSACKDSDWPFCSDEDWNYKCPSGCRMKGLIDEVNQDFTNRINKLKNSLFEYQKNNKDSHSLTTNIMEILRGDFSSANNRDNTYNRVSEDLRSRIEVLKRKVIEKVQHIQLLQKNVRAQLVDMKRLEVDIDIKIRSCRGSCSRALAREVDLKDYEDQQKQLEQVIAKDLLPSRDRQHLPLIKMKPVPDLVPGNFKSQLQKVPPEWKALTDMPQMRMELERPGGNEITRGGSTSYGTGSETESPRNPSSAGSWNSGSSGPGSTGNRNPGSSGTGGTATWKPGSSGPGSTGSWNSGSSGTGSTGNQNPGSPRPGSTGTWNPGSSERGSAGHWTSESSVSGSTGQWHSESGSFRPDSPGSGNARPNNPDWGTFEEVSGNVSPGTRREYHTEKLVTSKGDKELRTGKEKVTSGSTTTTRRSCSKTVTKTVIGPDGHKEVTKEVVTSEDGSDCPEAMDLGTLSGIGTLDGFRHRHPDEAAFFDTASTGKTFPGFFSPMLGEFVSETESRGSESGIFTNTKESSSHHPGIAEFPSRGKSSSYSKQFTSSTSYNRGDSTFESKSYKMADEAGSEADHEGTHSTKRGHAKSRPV
T1 sequence 2: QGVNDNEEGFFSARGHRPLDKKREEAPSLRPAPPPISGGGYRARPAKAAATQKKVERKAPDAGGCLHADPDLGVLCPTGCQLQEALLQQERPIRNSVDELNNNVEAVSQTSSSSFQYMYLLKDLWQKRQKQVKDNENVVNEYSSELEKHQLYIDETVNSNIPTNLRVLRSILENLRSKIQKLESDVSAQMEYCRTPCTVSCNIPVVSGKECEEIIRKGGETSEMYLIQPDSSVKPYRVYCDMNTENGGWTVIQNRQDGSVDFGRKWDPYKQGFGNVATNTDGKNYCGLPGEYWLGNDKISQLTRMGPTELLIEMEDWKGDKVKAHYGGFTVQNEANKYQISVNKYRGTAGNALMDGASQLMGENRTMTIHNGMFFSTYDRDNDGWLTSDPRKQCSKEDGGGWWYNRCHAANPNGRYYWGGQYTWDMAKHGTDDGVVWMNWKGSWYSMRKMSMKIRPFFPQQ
T1 sequence 3: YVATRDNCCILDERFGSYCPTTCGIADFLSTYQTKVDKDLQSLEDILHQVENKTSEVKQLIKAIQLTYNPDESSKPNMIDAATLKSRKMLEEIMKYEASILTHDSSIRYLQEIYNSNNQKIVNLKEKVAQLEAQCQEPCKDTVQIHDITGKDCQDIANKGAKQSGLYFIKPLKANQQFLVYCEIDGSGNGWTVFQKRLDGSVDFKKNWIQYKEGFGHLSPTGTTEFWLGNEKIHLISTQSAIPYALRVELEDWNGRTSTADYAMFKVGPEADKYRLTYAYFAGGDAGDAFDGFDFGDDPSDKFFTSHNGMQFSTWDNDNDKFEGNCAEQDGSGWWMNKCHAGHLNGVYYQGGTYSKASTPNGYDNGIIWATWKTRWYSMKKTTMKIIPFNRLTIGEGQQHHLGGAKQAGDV
The assay can be described thus: ELISA, purified protein on immobilized human fibrinogen, detected with mouse anti-EbpA^Full. For orientation: An ELISA detects its analyte on a solid surface through an enzyme-linked reagent.

B1: 6xHis-EbpA^CTD (C-terminal domain of EbpA, residues 594 to 1077) (other)
chain: MNGRTTQPLATAPEKVDFGVPSGKAPGVKLNVKKIWEEYDQDPTSRPDNVIYEISRKQVTDTANWQTGYIKLSKPENDTSNSWERKNVTQLSKTADESYQEVLGLPQYNNQGQAFNYQTTRELAVPGYSQEKIDDTTWKNTKQFKPLDLKVIKNSSSGEKNLVGAVFELSGKNVQTTLVDNKDGSYSLPKDVRLQKGERYTLTEVKAPAGHELGKKTTWQIEVSEQGKVSIDGQEVTTTNQVIPLEIENKFSSLPIRIRKYTMQNGKQVNLAEATFALQRKNAQGSYQTVATQKTDTTGLSYFKISEPGEYRMVEQSGPLGYDTLAGNYEFTVDKYGKIHYAGKNIEENAPEWTLTHQNNLKPFDLTVHKKADNQTPLKGAKFRLTGPDTDIELPKDGKETDTFVFENLKPGKYVLTETFTPEGYQGLKEPIELIIREDGSVTIDGEKVADVLISGEKNNQITLDVTNQAKVPLPETGGIGRLW
notes: Plasmid pSJH-541; not shown: N-terminal 6xHis tag from vector pQE-30Xa
Take B1: the binding result is recorded as “no binding”.

B2: 6xHis-EbpA^NTD (N-terminal domain of EbpA, residues 115 to 577) (other)
chain: PEKITVPENTKETNKNDSAPEKTEQPTATEEVTNPFAEARMAPATLRANLALPLIAPQYTTDNSGTYPTANWQPTGNQNVLNHQGNKDGSAQWDGQTSWNGDPTNRTNSYIEYGGTGDQADYAIRKYARETTTPGLFDVYLNVRGNVQKEITPLDLVLVVDWSGSMNENNRIGEVQKGVNRFVDTLADSGITNNINMGYVGYSSDGYNNNAIQMGPFDTVKNPIKNITPSSTRGGTFTQKALRDAGDMLATPNGHKKVIVLLTDGVPTFSYKVSRVQTEADGRFYGTQFTNRQDQPGSTSYISGSYNAPDQNNINKRINSTFIATIGEAMALKQRGIEIHGLGIQLQSDPRANLSKQQVEDKMREMVSADENGDLYYESADYAPDISDYLAKKAVQISGTVVNGKVVDPIAEPFKYEPNTLSMKSVGPVQVQTLPEVSLTGATINSNEIYLGKGQEIQIHYQV
notes: not shown: N-terminal 6xHis tag from vector pQE-30Xa
Consider B2, for which the binding result is on record as “binds”.
